Reference: US20210380975A1

Legend:
[1] = target: AKAP 150 (rat A-kinase anchor protein) (rat) (UniProt P24587); experiment: cell-based or functional assay
[2] = target: IL-6 (human, in degenerative IVD conditioned media) (human) (UniProt P05231); experiment: cell-based or functional assay
Sequence of UniProt P05231 (P05231 30-212 limits assumed): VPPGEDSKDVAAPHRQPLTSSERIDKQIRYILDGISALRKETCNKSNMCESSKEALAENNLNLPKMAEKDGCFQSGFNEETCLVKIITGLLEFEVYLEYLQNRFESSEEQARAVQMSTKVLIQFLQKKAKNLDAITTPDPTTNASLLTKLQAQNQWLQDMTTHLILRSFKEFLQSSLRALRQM

Sequence of UniProt P24587 (P24587 whole entry): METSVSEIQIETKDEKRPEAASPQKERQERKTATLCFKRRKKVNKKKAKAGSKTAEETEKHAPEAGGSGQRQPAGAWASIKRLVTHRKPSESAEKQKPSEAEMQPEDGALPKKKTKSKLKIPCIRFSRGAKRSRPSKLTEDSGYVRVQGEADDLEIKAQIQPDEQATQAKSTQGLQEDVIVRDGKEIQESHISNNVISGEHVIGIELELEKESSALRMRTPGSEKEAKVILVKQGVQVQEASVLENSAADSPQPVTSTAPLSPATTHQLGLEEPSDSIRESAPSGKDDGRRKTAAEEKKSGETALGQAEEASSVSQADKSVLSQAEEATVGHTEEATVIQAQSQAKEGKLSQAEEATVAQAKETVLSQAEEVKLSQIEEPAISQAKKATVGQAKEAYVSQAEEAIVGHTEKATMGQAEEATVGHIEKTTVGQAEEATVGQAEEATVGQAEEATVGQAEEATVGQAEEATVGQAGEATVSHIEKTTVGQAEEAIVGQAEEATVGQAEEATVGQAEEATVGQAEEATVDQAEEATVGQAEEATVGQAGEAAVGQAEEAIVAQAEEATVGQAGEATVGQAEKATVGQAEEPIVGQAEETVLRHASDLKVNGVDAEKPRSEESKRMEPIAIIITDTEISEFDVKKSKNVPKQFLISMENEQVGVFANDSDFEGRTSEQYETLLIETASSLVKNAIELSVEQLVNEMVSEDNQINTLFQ

Row | percentage of rat DRG neurons firing at 39° C. in degenerative IVD conditioned media [1] [%] | maximum firing response of DRG neurons (Boltzmann fit) [2] [%] | Substance
1 | 15.5 | – | AKAP inhibitor peptide St-Ht31 (Promega)
2 | – | 66 | Mouse isotype control antibody (Life Technologies)
3 | 61.9 | – | Control peptide St-Ht31P (Promega)
